# Starred links: 1 amine or outer side, 2 acyl side, 3 side chain; linkers in the order of their positions; H or OH if unused. Non-standard residues stand in square brackets, D forms with d. No end group written: not given here. AMCB = 2-amino-5-(4-chloro-2-methylphenyl)pentanoic acid, Cc1cc(Cl)ccc1CCC[C@H](N[*:1])C(=O)[*:2]; ACPP = 2-amino-5-(3-chlorophenyl)pentanoic acid, O=C([C@H](CCCc1cccc(Cl)c1)N[*:1])[*:2]; 2Cl,4OMe‑APPA = 2-amino-5-(2-chloro-4-methoxyphenyl)pentanoic acid; Bip(2'-Et-4'-OMe) = CCc1cc(OC)ccc1-c1ccc(C[C@H](N)C(=O)O)cc1; Leu(5,5,5,5',5',5'-F6) = N[C@@H](CC(C(F)(F)F)C(F)(F)F)C(=O)O; Nva(5-(3,5-Me2Ph)) = Cc1cc(C)cc(CCC[C@H](N)C(=O)O)c1; 2Cl‑APPA = 2-amino-5-(2-chlorophenyl)pentanoic acid; 2F‑APPA = 2-amino-5-(2-fluorophenyl)pentanoic acid; αMePhe(2-F) = C[C@](N)(Cc1ccccc1F)C(=O)O; hhPhe = N[C@@H](CCCc1ccccc1)C(=O)O; αMeF = C[C@](N)(Cc1ccccc1)C(=O)O; aThr = C[C@H](O)[C@H](N)C(=O)O; αMeP = C[C@@]1(C(=O)O)CCCN1; CNB = not defined here; Aib = CC(C)(N)C(=O)O
# Target: human GLP-1 receptor (human, UniProt P43220 24-463)
# Test: cell-based or functional assay
# Sequence of human GLP-1 receptor (P43220 24-463): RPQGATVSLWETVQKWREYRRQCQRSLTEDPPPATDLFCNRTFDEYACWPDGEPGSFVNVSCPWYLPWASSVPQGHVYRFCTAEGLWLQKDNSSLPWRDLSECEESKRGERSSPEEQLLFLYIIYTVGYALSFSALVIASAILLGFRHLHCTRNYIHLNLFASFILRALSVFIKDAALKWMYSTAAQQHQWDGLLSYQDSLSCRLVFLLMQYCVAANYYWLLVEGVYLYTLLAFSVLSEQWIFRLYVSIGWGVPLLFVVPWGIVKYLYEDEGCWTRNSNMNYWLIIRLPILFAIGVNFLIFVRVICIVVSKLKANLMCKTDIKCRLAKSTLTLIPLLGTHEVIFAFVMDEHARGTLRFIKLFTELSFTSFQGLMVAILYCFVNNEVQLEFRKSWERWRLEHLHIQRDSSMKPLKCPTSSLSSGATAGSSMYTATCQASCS
Binder,"cAMP release, % activity, 1 nM","cAMP release, % activity, 10 nM","cAMP release, % activity, 100 nM","cAMP release, % activity, 1 µM","cAMP release, % activity, 10 µM"
"H[Aib][Leu(5,5,5,5',5',5'-F6)]GT[αMePhe(2-F)]TSD[Bip(2'-Et-4'-OMe)][Nva(5-(3,5-Me2Ph))] [Seq. ID. No. 235: H-Aib-(Hfl)-GT-(α-Me-2F-Phe)-TSD-Bip(OMe)-(ADMP)]",99%,99%,99%,99%,99%
"H[Aib][CNB]GTFTSD[Bip(2'-Et-4'-OMe)][2Cl,4OMe‑APPA] (reading uncertain) [Seq. ID. No. 84: H-Aib-(CNB)-GTFTSD-Bip(OMe)-(2Cl,4OMe-APPA)]",38%,77%,85%,94%,97%
"H[Aib]QGTFTSD[Bip(2'-Et-4'-OMe)][2Cl,4OMe‑APPA] [Seq. ID. No. 68: H-Aib-QGTFTSD-Bip(OMe)-(2Cl, 4OMe-APPA)]",39%,80%,88%,96%,99%
H[Aib][CNB]GTFTSD[Bip(2'-Et-4'-OMe)][AMCB] (reading uncertain) [Seq. ID. No. 32: H-Aib-(CNB)-GTFTSD-Bip(OMe)-(AMCB)],39%,80%,88%,96%,99%
HSQGTFTSD[Bip(2'-Et-4'-OMe)][2Cl‑APPA] [Seq. ID. No. 50: HSQGTFTSD-Bip(OMe)-(2Cl-APPA)],60%,92%,98%,99%,99%
H[Aib]QG[aThr][αMePhe(2-F)][aThr]SD[Bip(2'-Et-4'-OMe)][2F‑APPA] (also: reduced (CH2) bonds Z9-Z10 and Z10-Z11) [Seq. ID. No. 203: H-Aib-QG-T(allo)-(α-Me-2F-Phe)-T(allo)-SD-(CH2)-Bip(OMe)-(CH2)-(2F-APPA)],86%,99%,99%,99%,99%
"H[Aib][Leu(5,5,5,5',5',5'-F6)]GT[αMeF]TSD[Bip(2'-Et-4'-OMe)][hhPhe] [Seq. ID. No. 230: H-Aib-(Hfl)-GT-(α-Me-Phe)-TSD-Bip(OMe)-(APPA)]",99%,99%,99%,99%,99%
"H[Aib][Leu(5,5,5,5',5',5'-F6)]GT[αMePhe(2-F)][aThr]SD[Bip(2'-Et-4'-OMe)][2F‑APPA] [Seq. ID. No. 224: H-Aib-(Hfl)-GT-(α-Me-2F-Phe)-T(allo)-SD-Bip(OMe)-(2F-APPA)]",99%,99%,99%,99%,99%
H[αMeP]QGTFTSD[Bip(2'-Et-4'-OMe)][ACPP] [Seq. ID. No. 11: H-(α-Me-Pro)-QGTFTSD-Bip(OMe)-(ACPP)],99%,99%,99%,99%,99%

# Target: human glucagon receptor (human, UniProt P47871 26-477)
# Test: cell-based or functional assay
Binder,"inhibition of cAMP production, 1 nM","inhibition of cAMP production, 10 nM","inhibition of cAMP production, 100 nM","inhibition of cAMP production, 1 µM","inhibition of cAMP production, 10 µM"
"H[Aib][CNB]GTFTSD[Bip(2'-Et-4'-OMe)][2Cl,4OMe‑APPA] (reading uncertain) [Seq. ID. No. 84: H-Aib-(CNB)-GTFTSD-Bip(OMe)-(2Cl,4OMe-APPA)]",4 pmol/ml/µg prt,2 pmol/ml/µg prt,0 pmol/ml/µg prt,0 pmol/ml/µg prt,0 pmol/ml/µg prt
H[αMeP]QGTFTSD[Bip(2'-Et-4'-OMe)][ACPP] [Seq. ID. No. 11: H-(α-Me-Pro)-QGTFTSD-Bip(OMe)-(ACPP)],3 pmol/ml/µg prt,0 pmol/ml/µg prt,0 pmol/ml/µg prt,0 pmol/ml/µg prt,0 pmol/ml/µg prt

# Reference: patent publication US20120021972A1 (CADILA HEALTHCARE, published 2012)
